Key:
[1] = biological target: endogenous human asparagine synthetase (ASNS) in leukemia cells (human) (UniProt P08243); assay: flow cytometry with QIFIKIT calibration beads, MOLT-4 cells, control antibody at 3 ug/ml
[2] = biological target: endogenous human asparagine synthetase (ASNS) in leukemia cells (human) (UniProt P08243); assay: flow cytometry with QIFIKIT calibration beads, K562 cells, control antibody at 3 ug/ml
[3] = biological target: endogenous human asparagine synthetase (ASNS) in leukemia cells (human) (UniProt P08243); assay: flow cytometry on fixed, permeabilised MOLT-4 cells (extremely low ASNS), control antibody at 3 ug/ml
[4] = biological target: endogenous human asparagine synthetase (ASNS) in leukemia cells (human) (UniProt P08243); assay: flow cytometry on fixed, permeabilised K562 cells (high ASNS), control antibody at 3 ug/ml

Chain of UniProt P08243 (P08243 2-561): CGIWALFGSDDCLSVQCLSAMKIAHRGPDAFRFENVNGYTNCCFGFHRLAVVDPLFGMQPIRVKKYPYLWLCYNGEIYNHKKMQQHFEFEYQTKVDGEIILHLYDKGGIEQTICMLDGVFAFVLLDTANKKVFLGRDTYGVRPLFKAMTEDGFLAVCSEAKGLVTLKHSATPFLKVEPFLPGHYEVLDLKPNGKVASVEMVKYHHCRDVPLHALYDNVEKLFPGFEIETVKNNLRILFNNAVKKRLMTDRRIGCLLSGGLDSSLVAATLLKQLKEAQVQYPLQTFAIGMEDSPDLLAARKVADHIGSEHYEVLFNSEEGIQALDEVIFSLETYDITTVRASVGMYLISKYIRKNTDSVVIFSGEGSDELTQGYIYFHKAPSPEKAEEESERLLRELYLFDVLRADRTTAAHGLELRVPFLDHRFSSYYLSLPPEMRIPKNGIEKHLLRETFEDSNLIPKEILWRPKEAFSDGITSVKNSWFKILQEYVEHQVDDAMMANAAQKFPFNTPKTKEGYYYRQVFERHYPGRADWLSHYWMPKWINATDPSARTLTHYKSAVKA

“control mouse IgG (3423, 2AHB12; Institute of Immunology) (antibody)” was tested, and the ABC (antibody binding capacity) [1] was 631 units/cell, the ABC (antibody binding capacity) [2] was 874 units/cell and the MFI (arbitrary units) [3] was 3.17. The MFI (arbitrary units) [4] was 4.56.
